Experimental data: the supplement of paper PMC10567573

B1: IRX6 (parent)
chain: YPCLEKPRIWSLAHTATASAVEGA

Variants of: B1
Experiment: protein stability index of a GFP-peptide fusion (GPS, HEK-293T) (PSI 1-6); higher = more stable
Settings: c terminus: a fixed tail appended
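Further: lentivirally expressed fusions sorted by FACS into six bins by GFP to DsRed ratio, PSI derived from sequencing read proportions per bin multiplied by bin number.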

Protein stability index of substitutions, site by site:
G23: L 2.7, I 3.44, S 2.13, N 2.68, W 1.98, Q 1.25, V 3.24
A18: P 3.41, I 3.17, V 2.84, H 2.15, M 3.02, R 3.8, W 2.05, D 1.78, K 2.59, T 3.02
P7: G 2.84, M 2.92, A 3.29, E 2.27, C 2.69, Y 2.59, Q 2.32, T 3.24, K 3.5, D 4.03, H 2.44
C3: D 1.58, L 1.86, I 1.74, N 1.37, K 3.76, R 2.76, F 3.06, H 2.16, E 1.85, A 1.96, V 1.66, M 2.28, S 2.46, T 2.85, Q 2.14, P 2.12, Y 1.54, G 2.91, W 1.68
S19: Q 3.07, D 1.83, N 2.27, W 3.1, Y 4.1, E 1.97, R 1.91, K 1.9, I 2.52, V 2.07, M 2.98, F 3.32
I9: G 2.2, V 3.31, P 2.35, F 2.3, Q 2.28, T 1.51, K 2.46, D 3.49, E 3.59, S 1.65, C 1.98, L 2.98, N 2.48, Y 2.3, H 1.25, M 3.85, A 3.17
A20: L 3.52, K 3.07, T 2.11, Y 4.34, D 2.67, I 2.52, M 1.53, H 3.49, N 2.87, E 1.86
A13: P 2.35, G 2.44, T 1.96, V 3.26, K 2.9, Q 2.46, I 3.27, M 1.35, D 2.71, Y 3.33, H 2.74, E 2.17
E22: M 3.75, D 2.16, H 2.05, K 2.29, V 2.62, W 1.73, N 3.13, T 2.63, P 2.34, L 2.67, G 3.1, C 3.29, R 2.98, S 1.1
T15: D 2.85, C 3.17, W 2.34, I 1.72, G 1.75, K 3.51, L 1.12, R 3.79, H 3.31
K6: W 2.69, L 1.2, I 1.59, H 1.79, P 2.1, V 2.61, S 3.68, F 2.54, R 1.88, N 1.48, G 2.34
V21: L 1.1, T 2.23, F 3.51, Y 2.29, N 2.73, K 1.45, S 1.6, H 2.21, C 1.23, R 2.62, D 1.82, M 1.82, W 3.41
R8: M 2.79, H 1.83, D 3.96, Y 2.17, E 2.22, N 3.06, Q 1.96, F 2.49, P 2.2, L 3.04
L4: W 2.68, Q 1.49, A 4.55, V 2.07, K 2.37, P 2.5, S 1.81, F 2.58, M 4.4, E 2.64, I 2.46, Y 2.53
